Measured values as given in patent US9902758B2, “Three-helix bundle protein and use thereof” (Samsung Electronics Co., Ltd., priority 2015, dated 2018).

Legend:
[1] = related art statement; cited from earlier work
[2] = test system: SJSA-1 (p53+/+) osteosarcoma cell line; test: Cell cycle arrest in SJSA-1 cells (EdU / Hoescht 33342 imaging); assay type: cell-based; conditions: 10 uM, 24 hours, compared to control (Mock), FIG. 7
Method: In this example, it was examined if the modified three-helix bundle proteins prepared in Example 3 can induce G1 and G2/M phase cell cycle arrest in SJSA-1 (p53+/+; ATCC), which is an osteosarcoma cell line expressing wild-type p53.
In particular, SJSA1 cells were treated with the modified three-helix bundle protein M11 or M25 at the concentration of 10 uM for 24 hours, and stained with EdU (Edu staining kit, Life Technology Inc.) and Hoescht 33342 (Life Technology Inc.). Among the cells, at least 1000 cells were analyzed by imaging with incell analyzer 6000 (Ge Healthcare) and incell communicator (GE Healthcare). For comparison, the same experiment using Nutlin 3a (Sigma) at the concentration of 10 uM was performed as a positive control.
The imaging results were analyzed by measuring the intensities of EdU (S phase indicator) and Hoescht33342 (DNA content indicator) at single cell level, and determining each population by measuring intensity of Hoescht33342 (DNA content indicator) and EdU (S phase indicator) at single cell level, thereby measuring ratio of cells at each cell cycle phase. The obtained population of each cell cycle phase was shown in FIG. 6, and the S phase measured by EdU uptake amount (EdU intensity) was shown in FIG. 7. […] G2/M is considered as a course progressing to G1 phase.

[3] = test system: SJSA-1 (p53+/+) osteosarcoma cell line; test: Cancer cell proliferation inhibition in SJSA-1 cells (CellTiter-Glo cell viability); assay type: cell-based; conditions: 5 days, TAT-coupled protein, FIG. 8; for cancer cell death rate: 10.00 uM
Method: The effects of the modified three-helix bundle proteins prepared in Example 1 to inhibit cancer cell proliferation was examined in SJSA-1 (p53+/+; ATCC), which is an osteosarcoma cell line expressing wild-type p53.
The cells were cultured in CO2 incubator under the conditions of 37° C., and CO2 5%, for 5 days. 80 uL of CellTiter-Glo reagent (Promega) was added to each well, and luminescence was measured with EnVision Multilabel Reader (PerkinElmer), to measure cell viability. The cell viability is indicated by a relative value to that of non-treated cells (“1.0”).

[4] = target: T1, full-length HDM2 (NP 002383.2) (Homo sapiens, UniProt Q00987); test: ELISA binding strength to full-length HDM2; conditions: absorbance at 450 nm, GST-fused protein 0-5.5 uM, versus GST only (negative control) and GST-p53LZ2 (positive control), FIG. 4
T1 construct: full-length HDM2 (NP 002383.2)
Method: (§1) The binding strength of the modified three-helix bundle proteins prepared in Example 1 was examined by ELISA.
(§2) In particular, each of full-length HDM2 (NP 002383.2), HDM2 N-terminal domain (NTD; the region from 1st to 125th amino acids of NP 002383.2), full-length HDMX (NP_001191100.1), and HDMX NTD (the region from 1st to 132nd amino acids of NP_001191100.1) was diluted to the concentration of 20 μg/ml with coating buffer (pH 9.6; 0.05M carbonate-bicarbonate buffer, pH9.6; Sigma-Aldrich), and coated on 96 well (Nunc, Maxisorp). The well was incubated overnight at 4° C. Thereafter, bindings between other proteins were blocked with 300 ul of 3% skim milk w/PBS-T (at room temperature for 3 hours). The 96 well plate was washed with 200 uL of PBS-T and treated with GST-M11 (SEQ ID NO: 7) or GST-M25 (SEQ ID NO: 16) at a concentration of 0, 0.5, 1, 1.5, 2, 2.5, 3, 3.5, 4, 4.5, 5, or 5.5 uM (micromole). The GST protein was produced from GST cds included in pGEX-4T3 vector purchased from GE healthcare.
(§3) One hour after, the plate was washed with 300 uL of PBS-T, and treated with 100 uL of HRP conjugated-anti-GST antibody (Abcam, 1:2000). […] Thereafter, absorbance at 450 nm was measured using microwell reader (Molecular Device, 340PC384). […]

[5] = target: T2, HDMX NTD (the region from 1st to 132nd amino acids of NP_001191100.1) (Homo sapiens, UniProt O15151); test: ELISA binding strength to HDMX NTD; conditions: absorbance at 450 nm, GST-fused protein 0-5.5 uM, versus GST only (negative control) and GST-p53LZ2 (positive control), FIG. 3
T2 construct: the region from 1st to 132nd amino acids of NP_001191100.1
T2 sequence (O15151 1-132 isoform O15151-5): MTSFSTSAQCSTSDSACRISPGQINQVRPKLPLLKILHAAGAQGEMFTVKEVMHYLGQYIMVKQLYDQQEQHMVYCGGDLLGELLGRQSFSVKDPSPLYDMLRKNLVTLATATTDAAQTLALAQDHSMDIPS
Method: as §1, §2, §3

[6] = target: T3, HDM2 N-terminal domain (NTD; the region from 1st to 125th amino acids of NP 002383.2) (Homo sapiens, UniProt Q00987); test: ELISA binding strength to HDM2 NTD; conditions: absorbance at 450 nm, GST-fused protein 0-5.5 uM, versus GST only (negative control) and GST-p53LZ2 (positive control), FIG. 5
T3 construct: the region from 1st to 125th amino acids of NP 002383.2
Method: as §1, §2, §3

T3 sequence (Q00987 1-125 isoform Q00987-11): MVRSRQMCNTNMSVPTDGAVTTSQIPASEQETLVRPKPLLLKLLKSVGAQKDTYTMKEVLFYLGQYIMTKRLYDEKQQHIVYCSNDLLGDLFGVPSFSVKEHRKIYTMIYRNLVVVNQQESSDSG
T1 sequence (Q00987 1-497 isoform Q00987-11): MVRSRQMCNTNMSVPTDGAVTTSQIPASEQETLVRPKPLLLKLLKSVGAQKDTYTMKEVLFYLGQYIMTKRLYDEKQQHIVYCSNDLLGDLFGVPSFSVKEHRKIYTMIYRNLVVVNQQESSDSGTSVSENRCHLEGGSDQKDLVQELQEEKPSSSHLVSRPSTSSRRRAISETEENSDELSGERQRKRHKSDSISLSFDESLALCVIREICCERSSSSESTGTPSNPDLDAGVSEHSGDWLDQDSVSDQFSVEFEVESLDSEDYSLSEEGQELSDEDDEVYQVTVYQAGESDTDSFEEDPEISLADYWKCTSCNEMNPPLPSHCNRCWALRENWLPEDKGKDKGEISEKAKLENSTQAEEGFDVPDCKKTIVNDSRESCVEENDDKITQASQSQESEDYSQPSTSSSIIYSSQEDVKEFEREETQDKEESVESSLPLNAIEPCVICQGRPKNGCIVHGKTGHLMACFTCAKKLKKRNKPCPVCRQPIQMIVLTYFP

COc1ccc(C2=N[C@@H](c3ccc(Cl)cc3)[C@@H](c3ccc(Cl)cc3)N2C(=O)N2CCNC(=O)C2)c(OC(C)C)c1 [Nutlin-3]
cytotoxicity [1]: high level of cytotoxicity

COc1ccc(C2=N[C@@H](c3ccc(Cl)cc3)[C@@H](c3ccc(Cl)cc3)N2C(=O)N2CCNC(=O)C2)c(OC(C)C)c1 [nutlin3a, Nutlin 3a, reference compound]
level (cell number) of cells at S phase measured by EdU intensity [2]: decrease in level (cell number) of cells at S phase compared to that of control (Mock)

B1: M25: modified three-helix bundle protein, a3D variant, SEQ ID NO: 16 (protein)
chain: MGSWFEFAWRLLEIKTRLQALGGSEAELAAFEKEIAAFESELQAYKGKGNPEVEALRFEAYWIRLELQAYRHN
modifications: Synthetic M25
level (cell number) of cells at S phase measured by EdU intensity [2]: decrease in level (cell number) of cells at S phase compared to that of control (Mock) | cancer cell death rate [3]: at least 80% | cancer cell proliferation inhibition effect compared with positive control [3]: equal to that of Nutlin-3 | binding strength to full-length HDM2 [4]: considerably higher than that of the negative control, and similar to or higher than that of the positive control | binding strength to HDMX NTD [5]: considerably higher than that of the negative control, and similar to or higher than that of the positive control | binding strength to HDM2 NTD [6]: considerably higher than that of the negative control, and similar to or higher than that of the positive control

B2: M11: modified three-helix bundle protein, a3D variant, SEQ ID NO: 7 (protein)
chain: MGSWAEFSQRLFAIYWRLLALGGSEAELAAFEKEIAAFESELQAYKGKGNPEVEALRKEAAAIRDELQAYRHN
modifications: Synthetic M11
level (cell number) of cells at S phase measured by EdU intensity [2]: decrease in level (cell number) of cells at S phase compared to that of control (Mock) | cancer cell death rate [3]: at least 90% | cancer cell proliferation inhibition effect compared with positive control [3]: equal to that of Nutlin-3 | binding strength to full-length HDM2 [4]: considerably higher than that of the negative control, and similar to or higher than that of the positive control | binding strength to HDMX NTD [5]: considerably higher than that of the negative control, and similar to or higher than that of the positive control | binding strength to HDM2 NTD [6]: considerably higher than that of the negative control, and similar to or higher than that of the positive control
